These results are taken from PMC3439991 (Thrombosis, 2012).

Where two headings read alike, the source gives them in different places.

For data set [1] the following is noted: cited from earlier work.
The conditions of data set [2]: pig, in vivo, sc. The source says:
Furthermore, systemic effects as bleeding were investigated by examination of all major tissues and organs.

Data set [3] is described as follows: Cumulative urine excretion of argatroban, by ecarin clotting time (ECT). It is filed as in vivo. The settings on record: pigs, s.c., similar for both formulations. On the procedure: The blood samples were drawn into plastic tubes containing 3.13% sodium citrate before dosing and at definite time intervals thereafter. Then, blood samples were centrifuged (1000 g for 10 min) to obtain citrated plasma. Urine samples were also collected using a bladder catheter and frozen at −20°C until further analysis.
Furthermore, antithrombin activity in plasma samples was also determined by ecarin chromogenic assay (ECA).

For data set [4] the following is noted: cited from earlier work. The source holds these as a separate data set.
The mark [5] stands for this setting: after subcutaneous administration.

Consider hirudin, for which, in data set [1] (administered intravenously), the half-life entry is reported as “about 60 min”. Also, in data set [1] (setting [5]), the half-life was 2 h; the “period of stable plasma concentrations and antithrombotic activity” value is listed as “approximately 12 hours”.
For the molecule `CC1CNc2c(cccc2S(=O)(=O)N[C@@H](CCCNC(=N)N)C(=O)N2CC[C@@H](C)C[C@@H]2C(=O)O)C1` (stereo partly drawn) [Argatroban], the “Local bleeding, toxic reactions, and other side effects” value in data set [2] is listed as “not observed”. Further, the “administered antithrombotic active amount recovered in urine (cumulative)” value in data set [3] is reported as 15–20%. In addition, the solubility in water entry in data set [4] is “about 1 mg·mL^−1”.
